Data as given in PMC3610634 (PLoS Genetics, 2013).

Target: the molecule itself
Experiment: solubility assay (sedimentation) + TEM; recombinant fibrils in 50 mM HEPES, pH 7.5; solubility assay 16.000 g, 30 min, 4°C; negative staining with 1% uranyl acetate

B1: recombinant full-length Ure2p fibrils (natural protein, yeast, UniProt P23202 1-354, looked up)
chain: MMNNNGNQVSNLSNALRQVNIGNRNSNTTTDQSNINFEFSTGVNNNNNNNSSSNNNNVQNNNSGRNGSQNNDNENNIKNTLEQHRQQQQAFSDMSHVEYSRITKFFQEQPLEGYTLFSHRSAPNGFKVAIVLSELGFHYNTIFLDFNLGEHRAPEFVSVNPNARVPALIDHGMDNLSIWESGAILLHLVNKYYKETGNPLLWSDDLADQSQINAWLFFQTSGHAPMIGQALHFRYFHSQKIASAVERYTDEVRRVYGVVEMALAERREALVMELDTENAAAYSAGTTPMSQSRFFDYPVWLVGDKLTIADLAFVPWNNVVDRIGINIKIEFPEVYKWTKHMMRRPAVIKALRGE
Does B1 bind?
Result: binds
